The target in assay [1] is T1, bovine serum albumin (bovine, UniProt P02769 25-607).
T1 construct: also called BSA
In words: Fab ELISA, Fab 5 ug/ml on immobilised antigen, anti-Flag-HRP, A450. The protocol: (§1) Fab ELISA using both human and mouse αKlotho was carried out for assessing cross-reactivity to human and mouse αKlotho (FIG. 16). Fabs (5 ug/ml) were incubated with immobilized αKlotho human, mouse, or neutravidin (NA) and SBA as negative controls. After washing off unbound Fab, bound Fab were detected using an HRP-conjugated anti-Flag antibody (Fabs have Falg tag on the end of their light chains). Colorimetric HRP reagents allow for absorbance readings at 450 nm.

In assay [2] the target is T2, neutravidin (UniProt P02701 25-152).
T2 construct: also called NA; NAV
T2 sequence (P02701 25-152): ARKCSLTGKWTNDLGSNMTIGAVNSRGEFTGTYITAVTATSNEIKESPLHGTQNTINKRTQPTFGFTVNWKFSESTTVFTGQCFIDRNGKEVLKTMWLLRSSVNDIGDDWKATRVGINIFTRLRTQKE
The description is as above. The protocol: as §1

In assay [3] the target is T3, full-length murine βKlotho expressed in HEK293 cells (mouse, UniProt Q99N32 1-1043).
T3 construct: whole, on cells
T3 sequence (looked up): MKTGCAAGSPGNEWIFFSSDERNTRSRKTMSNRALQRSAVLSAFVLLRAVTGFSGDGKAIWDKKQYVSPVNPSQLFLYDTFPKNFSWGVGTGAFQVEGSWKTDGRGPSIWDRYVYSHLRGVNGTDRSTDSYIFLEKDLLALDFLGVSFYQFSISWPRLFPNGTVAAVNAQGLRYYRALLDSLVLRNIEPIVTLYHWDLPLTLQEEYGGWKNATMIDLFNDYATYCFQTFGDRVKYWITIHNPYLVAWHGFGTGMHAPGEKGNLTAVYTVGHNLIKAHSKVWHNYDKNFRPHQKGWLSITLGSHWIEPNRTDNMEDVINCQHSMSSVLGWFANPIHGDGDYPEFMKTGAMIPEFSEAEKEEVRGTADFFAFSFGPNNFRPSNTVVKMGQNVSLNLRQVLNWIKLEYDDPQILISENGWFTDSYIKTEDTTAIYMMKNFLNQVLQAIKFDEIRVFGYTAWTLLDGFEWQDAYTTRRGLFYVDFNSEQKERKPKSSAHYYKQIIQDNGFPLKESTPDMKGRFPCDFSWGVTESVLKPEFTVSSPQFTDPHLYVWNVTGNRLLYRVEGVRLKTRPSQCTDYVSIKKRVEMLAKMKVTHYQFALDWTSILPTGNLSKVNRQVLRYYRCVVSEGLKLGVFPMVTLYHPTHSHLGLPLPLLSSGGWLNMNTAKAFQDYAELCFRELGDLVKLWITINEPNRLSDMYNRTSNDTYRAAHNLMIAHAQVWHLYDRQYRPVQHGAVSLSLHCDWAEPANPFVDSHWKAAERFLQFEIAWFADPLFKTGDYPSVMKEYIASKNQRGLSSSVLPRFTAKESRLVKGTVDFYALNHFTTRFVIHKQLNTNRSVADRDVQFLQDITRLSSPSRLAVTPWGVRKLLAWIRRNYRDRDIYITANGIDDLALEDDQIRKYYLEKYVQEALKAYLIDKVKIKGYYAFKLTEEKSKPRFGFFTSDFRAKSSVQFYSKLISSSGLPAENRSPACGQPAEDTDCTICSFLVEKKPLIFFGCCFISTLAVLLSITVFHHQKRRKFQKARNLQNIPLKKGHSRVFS
Nature of the assay: immunocytochemistry of transfected HEK293 cells.

In assay [4] the target is T4, human FGFR1c ligand-binding domain (human, UniProt P11362 142-365).
T4 construct: range 142-365; also called FGFR1c alone
T4 sequence (looked up): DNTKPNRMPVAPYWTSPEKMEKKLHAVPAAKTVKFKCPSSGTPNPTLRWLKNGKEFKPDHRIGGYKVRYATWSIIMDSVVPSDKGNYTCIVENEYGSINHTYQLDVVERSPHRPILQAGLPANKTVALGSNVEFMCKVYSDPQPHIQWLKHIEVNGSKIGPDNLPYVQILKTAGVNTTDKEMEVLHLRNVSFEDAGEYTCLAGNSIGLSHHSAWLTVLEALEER
In words: Fab-phage ELISA, immobilised antigen.

Assay [5] has as its target T5, extracellular domain (ECD) of human αKlotho, amino acids E34-S981 with C-terminal 6-His tag (R&D Systems … (human, UniProt Q9UEF7 34-981)).
T5 construct: range 34-981; also called αKlotho (aa34-981); target antigen
T5 sequence: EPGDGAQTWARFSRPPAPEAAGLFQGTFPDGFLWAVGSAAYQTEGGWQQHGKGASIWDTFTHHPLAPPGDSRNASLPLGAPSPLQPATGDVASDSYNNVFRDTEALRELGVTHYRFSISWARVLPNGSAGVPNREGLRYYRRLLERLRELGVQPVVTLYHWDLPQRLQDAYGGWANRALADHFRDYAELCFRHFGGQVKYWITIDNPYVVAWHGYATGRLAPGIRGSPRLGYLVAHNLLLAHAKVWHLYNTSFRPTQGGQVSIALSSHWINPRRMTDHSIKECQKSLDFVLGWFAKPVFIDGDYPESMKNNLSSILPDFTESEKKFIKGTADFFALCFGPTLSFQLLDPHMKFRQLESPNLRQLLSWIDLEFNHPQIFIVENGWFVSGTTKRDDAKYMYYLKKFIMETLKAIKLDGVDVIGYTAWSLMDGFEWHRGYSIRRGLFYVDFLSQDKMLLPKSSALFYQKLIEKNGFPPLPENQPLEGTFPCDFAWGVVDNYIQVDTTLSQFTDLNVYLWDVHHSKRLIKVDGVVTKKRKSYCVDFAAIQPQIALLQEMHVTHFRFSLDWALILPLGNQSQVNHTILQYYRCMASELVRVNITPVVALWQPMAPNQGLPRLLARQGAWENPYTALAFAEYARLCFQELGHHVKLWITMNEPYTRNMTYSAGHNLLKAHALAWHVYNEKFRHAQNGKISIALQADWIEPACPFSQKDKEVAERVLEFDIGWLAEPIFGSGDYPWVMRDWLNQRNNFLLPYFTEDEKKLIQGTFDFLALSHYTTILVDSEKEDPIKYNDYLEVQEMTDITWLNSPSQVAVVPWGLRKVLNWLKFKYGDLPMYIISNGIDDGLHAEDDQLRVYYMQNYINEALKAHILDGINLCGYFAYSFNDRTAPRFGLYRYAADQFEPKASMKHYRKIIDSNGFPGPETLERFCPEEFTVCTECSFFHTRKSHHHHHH
Nature of the assay: SPR, Fab captured by anti-H+L IgG, αKlotho injected at 50 to 6.25 ug/ml, Langmuir fit. The protocol:
Affinity estimates for each of the antibodies were determined by surface plasmon resonance (SPR). Fabs were immobilized using an anti-H+L antibody and serial dilutions of αKlotho were injected.

T1 sequence (P02769 25-607 limits assumed): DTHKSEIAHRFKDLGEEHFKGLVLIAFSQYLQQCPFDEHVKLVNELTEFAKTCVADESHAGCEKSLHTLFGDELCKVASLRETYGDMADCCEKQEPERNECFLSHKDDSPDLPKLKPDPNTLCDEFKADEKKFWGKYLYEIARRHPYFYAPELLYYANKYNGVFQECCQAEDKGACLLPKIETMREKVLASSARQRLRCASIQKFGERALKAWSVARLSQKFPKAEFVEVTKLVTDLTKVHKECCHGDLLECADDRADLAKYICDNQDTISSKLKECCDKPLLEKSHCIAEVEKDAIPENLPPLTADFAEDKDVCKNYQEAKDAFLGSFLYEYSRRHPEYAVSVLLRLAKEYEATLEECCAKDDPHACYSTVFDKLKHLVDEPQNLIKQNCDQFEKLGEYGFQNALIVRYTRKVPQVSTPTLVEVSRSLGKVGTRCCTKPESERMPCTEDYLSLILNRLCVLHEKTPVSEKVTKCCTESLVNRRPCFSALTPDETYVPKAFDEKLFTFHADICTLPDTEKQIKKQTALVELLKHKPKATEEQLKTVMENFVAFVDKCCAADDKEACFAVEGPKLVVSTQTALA

B1: sb106 Fab (Fab, V domains shown)
VH: EVQLVESGGGLVQPGGSLRLSCAASGFNISYYSIHWVRQAPGKGLEWVAYISPSYGYTSYADSVKGRFTISADTSKNTAYLQMNSLRAEDTAVYYCARYYVYASHGWAGYGMDYWGQGTLVTVSS
VL: DIQMTQSPSSLSASVGDRVTITCRASQSVSSAVAWYQQKPGKAPKLLIYSASSLYSGVPSRFSGSRSGTDFTLTISSLQPEDFATYYCQQAGYSPITFGQGTKVEIKR
notes: also called Fsb106; clone 48
Take B1: the binding result in assay [1] is listed as “no binding (tested: 5 ug/ml)”; in assay [2], “no binding (tested: 5 ug/ml)”; in assay [3], “no binding (tested: 5 µg/ml)”; in assay [4], “no binding”. The molecule also gave a Kd in assay [5] of 1.08 nM. This molecule registered a koff in assay [5] of 0.000389 s⁻¹. The same molecule registered a kon in assay [5] of 360000 M⁻¹ s⁻¹.
